Biological target: recombinant TLR4 protein
Experiment: ELISA: TLR4 coated on the plate, MD2 titrated from 133.3 to 0.065 nM, anti-MD2 detection, nonlinear regression

recombinant MD2 protein (ligand) showed a Kd of 18.4 nM.

Source: patent US20170260241A1
